The source of these data is publication PMC12448856, “Decoding the base flipping mechanism of the SET- and RING-associated (SRA) domain of the epigenetic UHRF1 protein”.

Data set [1] addresses T1, UHRF1 SRA domain (human, UniProt Q96T88 408-643).
T1 sequence: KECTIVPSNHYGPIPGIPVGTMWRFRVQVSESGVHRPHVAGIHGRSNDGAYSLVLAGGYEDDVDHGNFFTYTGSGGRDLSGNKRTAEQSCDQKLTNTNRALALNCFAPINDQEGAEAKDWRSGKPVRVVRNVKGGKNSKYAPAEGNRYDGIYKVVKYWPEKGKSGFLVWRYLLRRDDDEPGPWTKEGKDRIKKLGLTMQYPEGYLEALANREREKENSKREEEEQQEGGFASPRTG
The data set is described as follows: intrinsic Trp fluorescence titration; 1 uM SRA; 20 mM PBS pH 7.5, 50 mM NaCl, 2.5 mM TCEP, 0.05% PEG 20000, 20 C; duplex 1 uM in anisotropy. To be noted: protein: recombinant; 12 bp duplex.

The target in data set [2] is T1, UHRF1 SRA domain. Described as above. To be noted: protein: recombinant; 12 bp duplex. This is another data set of the same source.

B1: HM duplex, unlabelled (dsDNA)
DNA 1: GGGCCCGCAGGG
DNA 2: CCCTGCGGGCCC
modifications: 5mC at position 6 of strand 1
Take B1: in the data set with UHRF1 SRA domain [1], the Ka is 8.1 ± 0.2 10^6 M-1.

B2: NM duplex, unlabelled (dsDNA)
DNA 1: GGGCCCGCAGGG
DNA 2: CCCTGCGGGCCC
For B2, the Ka with UHRF1 SRA domain [2] is 1.43 ± 0.07 10^6 M-1.
